Experimental data taken from patent US7186539.

B1: CHO-BACE, recombinant human BACE construct Asp2-2LΔTM-His6 expressed in CHO cells (protein)
chain: TQHGIRLPLRSGLGGAPLGLRLPRETDEEPEEPGRRGSFVEMVDNLRGKSGQGYYVEMTVGSPPQTLNILVDTGSSNFAVGAAPHPFLHRYYQRQLSSTYRDLRKGVYVPYTQGKWEGELGTDLVSIPHGPNVTVRANIAAITESDKFFINGSNWEGILGLAYAEIARPDDSLEPFFDSLVKQTHVPNLFSLQLCGAGFPLNQSEVLASVGGSMIIGGIDHSLYTGSLWYTPIRREWYYEVIIVRVEINGQDLKMDCKEYNYDKSIVDSGTTNLRLPKKVFEAAVKSIKAASSTEKFPDGFWLGEQLVCWQAGTTPWNIFPVISLYLMGEVTNQSFRITILPQQYLRPVEDVATSQDDCYKFAISQSSTGTVMGAVIMEGFYVVFDRARKRIGFAVSACHVHDEFRTAAVEGPFVTLDMEDCGYNIPQTDESHHHHHH
B2: pQE70-BACE (M)R36GSFVE...QTDES432RS(His)6 (protein)
chain: MRGSFVEMVDNLRGKSGQGYYVEMTVGSPPQTLNILVDTGSSNFAVGAAPHPFLHRYYQRQLSSTYRDLRKGVYVPYTQGKWEGELGTDLVSIPHGPNVTVRANIAAITESDKFFINGSNWEGILGLAYAEIARPDDSLEPFFDSLVKQTHVPNLFSLQLCGAGFPLNQSEVLASVGGSMIIGGIDHSLYTGSLWYTPIRREWYYEVIIVRVEINGQDLKMDCKEYNYDKSIVDSGTTNLRLPKKVFEAAVKSIKAASSTEKFPDGFWLGEQLVCWQAGTTPWNIFPVISLYLMGEVTNQSFRITILPQQYLRPVEDVATSQDDCYKFAISQSSTGTVMGAVIMEGFYVVFDRARKRIGFAVSACHVHDEFRTAAVEGPFVTLDMEDCGYNIPQTDESRSHHHHHH

How the values were obtained:
[1] = biological target: T1, Synthetic peptide substrate GLTNIKTEEISEISY-EVEFRWKK
T1 chain: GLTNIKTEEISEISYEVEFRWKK

[2] = biological target: T2, Peptide substrate EIDL-MVLDWHDR
T2 chain: EIDLMVLDWHDR

[3] = biological target: T3, Synthetic peptide substrate SEISY-EVEFRWKK
T3 chain: SEISYEVEFRWKK

| Protein | Km [1] | Vmax (µmol min^-1mg^-1) [1] | kcat [1] | kcat/Km [1] | Km [2] | Vmax (µmol min^-1mg^-1) [2] | kcat [2] | kcat/Km [2] | Km [3] | Vmax (µmol min^-1mg^-1) [3] | kcat [3] | kcat/Km [3] |
| --- | --- | --- | --- | --- | --- | --- | --- | --- | --- | --- | --- | --- |
| B1 | 4.9 µM | 0.435 | 0.345 s⁻¹ | 0.0704 sec^-1µM^-1 | 12 µM | 0.0196 | 0.0155 s⁻¹ | 0.0013 sec^-1µM^-1 | 52 µM | 0.294 | 0.233 s⁻¹ | 0.0045 sec^-1µM^-1 |
| B2 | 5.4 µM | 0.4 | 0.317 s⁻¹ | 0.0581 sec^-1µM^-1 | – | – | – | – | 55.5 µM | 0.345 | 0.273 s⁻¹ | 0.0049 sec^-1µM^-1 |
